# Experimental data: paper PMC4379030
# Tests used:
# [1] = target: CaM-free full-length murine inducible nitric-oxide synthase, expressed and purified in the absence of CaM (murine) (UniProt P29477); test: ITC; single injection mode; 20 μM iNOSfl (-CaM) (dissolved in 200 μl) against 8 μM CaM (dissolved in 2 ml); 40 mM EPPS, 10% glycerol, 150 mM NaCl, 2 mM Ca2+; single-site binding model
# [2] = target: CaM-free full-length murine inducible nitric-oxide synthase, expressed and purified in the absence of CaM (murine) (UniProt P29477)
# UniProt P29477, sequence (P29477 whole entry): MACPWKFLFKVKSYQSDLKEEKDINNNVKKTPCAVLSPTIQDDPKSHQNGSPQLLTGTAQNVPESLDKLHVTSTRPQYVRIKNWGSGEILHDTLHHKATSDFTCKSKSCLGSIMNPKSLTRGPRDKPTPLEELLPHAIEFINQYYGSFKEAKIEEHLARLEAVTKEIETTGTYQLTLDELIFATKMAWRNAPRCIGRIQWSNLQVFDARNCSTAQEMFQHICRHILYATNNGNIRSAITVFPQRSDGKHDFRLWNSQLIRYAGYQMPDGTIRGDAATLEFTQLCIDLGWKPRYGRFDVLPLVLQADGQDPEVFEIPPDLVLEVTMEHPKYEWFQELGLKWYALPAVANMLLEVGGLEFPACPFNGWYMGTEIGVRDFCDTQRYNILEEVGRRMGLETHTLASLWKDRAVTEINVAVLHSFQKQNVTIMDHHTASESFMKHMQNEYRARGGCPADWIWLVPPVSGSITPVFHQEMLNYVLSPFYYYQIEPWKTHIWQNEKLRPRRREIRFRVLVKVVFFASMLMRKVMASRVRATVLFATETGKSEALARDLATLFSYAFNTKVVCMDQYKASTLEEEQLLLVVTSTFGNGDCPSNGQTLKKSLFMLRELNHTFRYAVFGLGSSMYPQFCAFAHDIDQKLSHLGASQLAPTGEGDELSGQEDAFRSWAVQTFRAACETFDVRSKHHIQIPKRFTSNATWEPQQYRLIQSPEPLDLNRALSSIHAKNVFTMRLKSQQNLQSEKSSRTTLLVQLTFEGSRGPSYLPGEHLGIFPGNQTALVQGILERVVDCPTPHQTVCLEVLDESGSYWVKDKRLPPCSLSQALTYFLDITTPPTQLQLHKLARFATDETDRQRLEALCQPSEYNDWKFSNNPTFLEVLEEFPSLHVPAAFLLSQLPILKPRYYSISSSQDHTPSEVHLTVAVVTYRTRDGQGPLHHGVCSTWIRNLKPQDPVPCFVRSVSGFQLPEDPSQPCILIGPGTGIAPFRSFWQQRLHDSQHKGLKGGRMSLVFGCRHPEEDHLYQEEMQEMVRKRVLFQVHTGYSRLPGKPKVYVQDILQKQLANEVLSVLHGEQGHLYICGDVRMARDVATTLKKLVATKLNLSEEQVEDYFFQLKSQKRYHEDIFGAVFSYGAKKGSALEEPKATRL
substance,measurement,setting,value
calmodulin (added in vitro) (from UniProt P0DP23 1-149) (natural protein),dH,[1],489 kcal/mol
same,"steady-state NO synthesis activity (oxyhemoglobin assay, 1 μM CaM in the assay buffer, 25°C) (min^-1 per μg of protein)",[2],10.8
